Measurements taken from patent publication US20250011420A1 (MEDICOVESTOR, published 2025).

Target: T1, recombinant 6His-Sp17 protein (UniProt Q15506 1-151)
T1 sequence: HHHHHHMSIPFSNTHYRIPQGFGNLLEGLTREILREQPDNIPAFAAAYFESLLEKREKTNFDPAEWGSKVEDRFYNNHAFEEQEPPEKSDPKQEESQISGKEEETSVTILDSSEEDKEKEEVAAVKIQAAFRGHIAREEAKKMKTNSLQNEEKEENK
Assay: SPR (Biacore T200), 6His-Sp17 at 6.25-300 nM
Excerpt: The lines correspond, from highest to lowest, to fitted cycles for 300 nanomolar, 100 nanomolar, 50 nanomolar, 25 nanomolar, 12.5 nanomolar, and 6.25 nanomolar concentrations of 6His-Sp17.
The nucleotide sequences encoding the VH and VL regions of Example 1 were cloned into a mouse IgG2a heavy chain gene and a mouse kappa light chain gene, respectively, and expressed in CHO—S cells to produce a mouse-human chimeric antibody, which was named chAB2. Successful generation of the antibody was confirmed by SDS-PAGE and western blotting using anti-mouse heavy and light chain antibodies and recombinant Sp17 protein (FIGS. 2 & 3). The chAB2 antibody was reactive to mouse surface Sp17 protein expressed on the mouse ovarian cancer cell line ID8 (FIG. 4).

B1: mouse-human chimeric anti-Sp17 IgG2a/kappa monoclonal antibody chAB2 (antibody, V domains shown)
VH: QVQLQQSGAEVKKPGSSVKVSCKASGGTFSSYAISWVRQAPGQGLEWMGRIIPILGIANYAQKFQGRVTITADKSTSTAYMELSSLRSEDTAVYYCARPSEEVVAAYGAFDIWGQGTTVTVSS
VL: EIVLTQSPLSLPVRPGEPASISCRASQSLLRSDGFNYLDWYLQKPGQSPQLLVYLGSNRASGVPDRFSGSGSGTDFTLKISRVEAEDVGVYYCMQAVQTPYIFGQGTKLEIK
notes: also called chimeric antibody; anti-Sp17 antibody chAB2
B1 showed a Kd of 2.07 nM, a koff of 0.00013 s⁻¹ and a kon of 62600 M⁻¹ s⁻¹.
